B1: TRIM29 (parent)
chain: FAEKGELRKSIFSESRKPTVSIME
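Also: lentivirally expressed fusions sorted by FACS into six bins by GFP to DsRed ratio, PSI derived from sequencing read proportions per bin multiplied by bin number.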

Variants of: B1
Assay: protein stability index of a GFP-peptide fusion (GPS, HEK-293T) (PSI 1-6); higher = more stable
Details: c terminus: a fixed tail appended
FAEKGELRKSIFSWSRKPTVSIME [E14W] showed a protein stability index of 1.76.
Variant FAEKGELRKSIFSYSRKPTVSIME [E14Y] has a protein stability index of 1.7.
In the case of FAEKGELRKSIFSTSRKPTVSIME [E14T], the protein stability index is reported as 2.63.
In the case of FAEKGELRKSIFSVSRKPTVSIME [E14V], the protein stability index is reported as 2.05.
Work on FAEKGELRKSIFSESRKPTVSIMP [E24P] yielded a protein stability index of 2.23.
FAEKGELRKSIFSESRKPTVSIMD [E24D] gave a protein stability index of 2.41.
Work on FAEKGELRKSIFSESRKPTVSIMF [E24F] yielded a protein stability index of 2.22.
Work on FAEKGELRKSIFSESRKPTVSIMQ [E24Q] yielded a protein stability index of 1.95.
In the case of FAEKGELRKSIFSESRKPTVSIMH [E24H], the protein stability index is reported as 3.14.
Work on FAEKGELRKSIFSESRKPTVSIMG [E24G] yielded a protein stability index of 2.2.
For FAEKGELRKSIFSESRKPTVSIMM [E24M], the protein stability index was 2.73.
FAEKGELRKSIFSESRKPTVSIMI [E24I] showed a protein stability index of 2.79.
Variant FAEKGELRKSIFSESRKPTVSIMA [E24A] has a protein stability index of 2.12.
With FAEKGELRKSIFSESRKPTVSIMK [E24K] the protein stability index was 1.76.
With FAEKGELRKSIFSESRKPTVSIMN [E24N] the protein stability index was 1.36.
With FAEKGELRKSIFSESRKPTVSIML [E24L] the protein stability index was 2.98.
In the case of FAEKGELRKSIFSESRKPTVSIMC [E24C], the protein stability index is reported as 2.07.
For FAEKGELRKSIFSESAKPTVSIME [R16A], the protein stability index was 1.49.
Work on FAEKGELRKSIFSESEKPTVSIME [R16E] yielded a protein stability index of 1.3.
In the case of FAEKGELRKSIFSESYKPTVSIME [R16Y], the protein stability index is reported as 1.4.
Variant FAEKGELRKSIFSESFKPTVSIME [R16F] has a protein stability index of 1.96.
FAEKGELRKSIFSESWKPTVSIME [R16W] gave a protein stability index of 2.29.
FAEKGELRKSIFSESVKPTVSIME [R16V] showed a protein stability index of 2.18.
For FAEKGELRKSIFSESKKPTVSIME [R16K], the protein stability index was 2.35.
Work on FAEKGELRKSIFSESMKPTVSIME [R16M] yielded a protein stability index of 2.02.
FAEKGELRKSIFSESSKPTVSIME [R16S] gave a protein stability index of 1.8.
With FAEKGELRKSIFSESTKPTVSIME [R16T] the protein stability index was 1.6.
Work on FAEKGELRKSIFSESPKPTVSIME [R16P] yielded a protein stability index of 1.96.
In the case of FAEKGELRKSIFSESNKPTVSIME [R16N], the protein stability index is reported as 1.5.
For FAEKGELRKSIFSESHKPTVSIME [R16H], the protein stability index was 1.74.
FAEKGELRKSIFSESIKPTVSIME [R16I] gave a protein stability index of 1.78.
With FAEKGELRKSIFSESDKPTVSIME [R16D] the protein stability index was 2.04.
Variant FAEKGELRKSIFSESCKPTVSIME [R16C] has a protein stability index of 1.69.
With FAEKGELRKSIFSESLKPTVSIME [R16L] the protein stability index was 1.99.
FAEKGELRKSIFSESQKPTVSIME [R16Q] gave a protein stability index of 1.6.
With FAEKGELRKSIFSESGKPTVSIME [R16G] the protein stability index was 1.99.
With FAEKGELRKSIFSESRKWTVSIME [P18W] the protein stability index was 2.83.
For FAEKGELRKSIFSESRKQTVSIME [P18Q], the protein stability index was 1.34.
FAEKGELRKSIFSESRKLTVSIME [P18L] gave a protein stability index of 1.98.
Variant FAEKGELRKSIFSESRKITVSIME [P18I] has a protein stability index of 2.06.
Variant FAEKGELRKSIFSESRKDTVSIME [P18D] has a protein stability index of 2.32.
FAEKGELRKSIFSESRKGTVSIME [P18G] showed a protein stability index of 2.59.
For FAEKGELRKSIFSESRKFTVSIME [P18F], the protein stability index was 2.31.
FAEKGELRKSIFSESRKNTVSIME [P18N] showed a protein stability index of 2.59.
Variant FAEKGELRKSIFSESRKHTVSIME [P18H] has a protein stability index of 1.94.
For FAEKGELRKSIFSESRKATVSIME [P18A], the protein stability index was 2.01.
FAEKGELRKSIFSESRKTTVSIME [P18T] showed a protein stability index of 1.85.
In the case of FAEKGELRKSIFSESRKKTVSIME [P18K], the protein stability index is reported as 1.41.
Variant FAEKGELRKSIFSESRKYTVSIME [P18Y] has a protein stability index of 2.79.
With FAEKGELRKSIFSESRKETVSIME [P18E] the protein stability index was 2.35.
Variant FAEKGELRKSIFSESRKCTVSIME [P18C] has a protein stability index of 2.21.
FAEKGELRKSIFSESRKRTVSIME [P18R] gave a protein stability index of 2.32.
Work on FAEKGELRKSIFSESRKSTVSIME [P18S] yielded a protein stability index of 1.46.
Work on FAEKGELRKSIFSESRKVTVSIME [P18V] yielded a protein stability index of 2.5.
For FAEKGELRKSIFSESRKMTVSIME [P18M], the protein stability index was 2.1.
For FAEKGELRKSIFSESRKPTVDIME [S21D], the protein stability index was 1.65.
For FAEKGELRKSIFSESRKPTVQIME [S21Q], the protein stability index was 3.18.
Work on FAEKGELRKSIFSESRKPTVIIME [S21I] yielded a protein stability index of 3.09.
Work on FAEKGELRKSIFSESRKPTVPIME [S21P] yielded a protein stability index of 1.47.
In the case of FAEKGELRKSIFSESRKPTVKIME [S21K], the protein stability index is reported as 2.7.
FAEKGELRKSIFSESRKPTVWIME [S21W] gave a protein stability index of 2.55.
FAEKGELRKSIFSESRKPTVCIME [S21C] showed a protein stability index of 1.49.
Variant FAEKGELRKSIFSESRKPTVVIME [S21V] has a protein stability index of 2.17.
With FAEKGELRKSIFSESRKPTVMIME [S21M] the protein stability index was 2.61.
FAEKGELRKSIFSESRKPTVNIME [S21N] showed a protein stability index of 2.11.
In the case of FAEKGELRKSIFSESRKPTVGIME [S21G], the protein stability index is reported as 1.95.
FAEKGELRKSIFSESRKPTVEIME [S21E] showed a protein stability index of 1.76.
For FAEKGELRKSIFSESRKPTVRIME [S21R], the protein stability index was 2.19.
FAEKGELRKSIFSESRKPTVYIME [S21Y] showed a protein stability index of 2.15.
FAEKGELRKSIFSESRKPTVLIME [S21L] showed a protein stability index of 2.05.
Work on FAEKGELRKSIFSESRKPTVAIME [S21A] yielded a protein stability index of 2.12.
FAEKGELRKSIFSESRKPTVHIME [S21H] showed a protein stability index of 1.31.
In the case of FAEKGELRKSIFSESRKPTVTIME [S21T], the protein stability index is reported as 1.76.
In the case of FAEKGELRKSIFSESRKPTVFIME [S21F], the protein stability index is reported as 2.61.
For FAEKGELRKSIFSESRKPTSSIME [V20S], the protein stability index was 2.34.
Variant FAEKGELRKSIFSESRKPTPSIME [V20P] has a protein stability index of 1.89.
Work on FAEKGELRKSIFSESRKPTMSIME [V20M] yielded a protein stability index of 1.92.
In the case of FAEKGELRKSIFSESRKPTYSIME [V20Y], the protein stability index is reported as 1.67.
FAEKGELRKSIFSESRKPTTSIME [V20T] gave a protein stability index of 1.77.
Variant FAEKGELRKSIFSESRKPTQSIME [V20Q] has a protein stability index of 2.2.
For FAEKGELRKSIFSESRKPTKSIME [V20K], the protein stability index was 2.08.
Work on FAEKGELRKSIFSESRKPTHSIME [V20H] yielded a protein stability index of 2.64.
Work on FAEKGELRKSIFSESRKPTRSIME [V20R] yielded a protein stability index of 1.68.
FAEKGELRKSIFSESRKPTDSIME [V20D] showed a protein stability index of 2.02.
In the case of FAEKGELRKSIFSESRKPTNSIME [V20N], the protein stability index is reported as 1.27.
For FAEKGELRKSIFSESRKPTWSIME [V20W], the protein stability index was 2.58.
FAEKGELRKSIFSESRKPTLSIME [V20L] showed a protein stability index of 1.23.
FAEKGELRKSIFSESRKPTGSIME [V20G] showed a protein stability index of 1.7.
FAEKGELRKSIFSESRKPTASIME [V20A] showed a protein stability index of 1.42.
For FAEKGELRKSIFSESRKPTFSIME [V20F], the protein stability index was 1.97.
With FAEKGELRKSIFSESRKPTESIME [V20E] the protein stability index was 2.79.
FAEKGELRKSIFSESRKPTCSIME [V20C] showed a protein stability index of 2.13.
In the case of FAEKGELRKSIFSESRKPTISIME [V20I], the protein stability index is reported as 2.12.
For FAEKGELRKSIFSEMRKPTVSIME [S15M], the protein stability index was 2.04.

Reference: the supplement of paper PMC10567573
